# Reference: the RNAGym collection of RNA variant scans (doi:10.7554/elife.80360)
# B1: HDV Ribozyme (parent)
# chain: GGCCGGCAUGGUCCCAGCCUCCUCGCUGGCGCCGGCUGGGCAACAUUCCGAGGGGACCGUCCCCUCGGUAAUGGCGAAUGGGACCCA
# Variants of: B1
# Test: self-cleavage, relative activity (ratio to wild type); higher = more cleavage; co-transcriptional
row,Variant,self-cleavage
1,G17A A45G,0.755
2,G17C C58G,0.32
3,G17C C58U,0.302
4,G17C A56G,0.145
5,A16U G31U,0.225
6,A16U G31A,0.409
7,A16U U60C,0.831
8,A16U U60A,0.587
9,G17A U23A,0.686
10,G17A G50U,0.815
11,G17A G50C,0.502
12,A16U U79C,0.705
13,A16G G55C,1.2
14,A16G G55U,0.914
15,A16U C49U,0.918
16,A16U C49G,0.91
17,A16U C49A,0.895
18,A16G G68C,1.06
19,A16G G68U,1.01
20,A16G G68A,0.928
21,G17A C61G,0.406
22,G17A C61U,0.904
23,G17C A70G,0.346
24,G17A G35A,0.205

row,Variant,self-cleavage
1,G17A G34C,0.0594
2,G17A G34A,0.117
3,G17A U20A,0.253
4,A16G G82U,0.237
5,G17A A43C,0.0369
6,G17A C57U,0.727
7,G17A C57A,0.965
8,G17C G50C,0.324
9,A16U G76U,1.05
10,G17C C19A,0.0519
11,G17C C19G,0
12,A16G C84G,0.623
13,G17C C33A,0.0437
14,G17C C33G,0
15,G17C G68A,0.297
16,G17C C57A,0.437
17,G17A C26A,0.798
18,G17A C26G,0.793
19,G17A C22G,0.0573
20,G17C G54C,0.447
21,A16U C57G,1.22
22,A16U C22A,0.604
23,A16U C18G,0.227
24,A16U C18U,0.427

row,Variant,self-cleavage
1,G17C A87G,0.244
2,G17C C63A,0.306
3,G17C C63G,0.244
4,G17C G39A,0.113
5,G17C G39C,0.0462
6,G17C C24U,0.106
7,A16G G39A,0.404
8,G17A A71C,0.151
9,A16U G74A,0.388
10,A16U G74C,0.175
11,G17A G74U,0.197
12,G17A G74C,0.0346
13,A16U C30A,0.201
14,G17C C75A,0.0536
15,G17C C75G,0.111
16,A16G C85G,0.965
17,A16G C85U,0.969
18,G17A U65A,0.752
19,G17A U65G,0.773
20,G17A U65C,0.671
21,A16U A77C,0.0692
22,G17A A77U,0.138
23,G17C G34A,0.102
24,G17C G34U,0.0415

row,Variant,self-cleavage
1,A16U C48G,1.2
2,A16G G50U,1.02
3,A16G G50C,0.95
4,G17A G80U,0.198
5,G17A G80A,0.205
6,A16G G40A,1.13
7,A16G G40U,0.719
8,G17A C84G,0.623
9,G17A C84U,0.598
10,G17A C84A,0.807
11,G17A G53A,1.02
12,G17A G53C,0.831
13,A16U C85U,1.03
14,G17C C30G,0.684
15,G17C C30A,0.342
16,G17C C30U,0.655
17,G17C G55C,0.262
18,G17C G55A,0.402
19,G17C G55U,0.208
20,A16U G35A,0.342
21,A16U G35U,0.208
22,A16U C21G,0.0665
23,A16U C21A,0.185
24,A16U G38C,0

row,Variant,self-cleavage
1,G17C C61U,0.383
2,G17A A83G,0.7
3,G17A A83U,0.565
4,A16G G52C,0.928
5,A16G G52U,1.07
6,A16U C36G,0.0519
7,A16U C36A,0.0475
8,G17C C62A,0.252
9,G17C C62G,0.0723
10,A16U G59U,0.966
11,A16U G59C,0.997
12,G17A U47A,0.554
13,G17A U47C,0.587
14,G17C G38U,0.0898
15,G17C G28A,0.0449
16,G17C,0.338
17,G17A,0.718
18,G17A G25C,0.158
19,A16U A43C,0.32
20,A16U A43G,0.453
21,A16U G17U,0.589
22,A16U G17C,0.68
23,G17C C36A,0.0361
24,G17C C36G,0.122

row,Variant,self-cleavage
1,G17C C36U,0.0339
2,G17A G67U,0.776
3,G17A U79C,0.514
4,G17A U79A,0.627
5,G17C A43G,0
6,G17C A43U,0.115
7,A16G G34U,0.324
8,A16G G34C,0.0536
9,A16G G34A,0.17
10,A16U A71G,0.782
11,A16U A71U,0.877
12,A16U C63G,0.831
13,G17A C32A,0.0852
14,G17A G38C,0.0791
15,G17C C49U,0.332
16,A16U A45G,0.982
17,A16U A78U,0.332
18,G17A G82C,0.166
19,G17A G82U,0.346
20,G17A G82A,0.272
21,A16U A51G,1.04
22,A16U A42U,0.465
23,A16U C62U,1.04
24,A16U C62G,0.575

row,Variant,self-cleavage
1,A16U C64G,0.782
2,A16G C64G,0.807
3,G17C C66U,0.156
4,A16G G28C,0.115
5,A16U U37A,0.0554
6,A16U U37C,0.929
7,A16U U37G,0
8,A16U G82A,0.745
9,A16U G82U,1.06
10,A16U G82C,0.256
11,G17A A42U,0.119
12,G17A A42C,0.229
13,G17A G68U,0.659
14,G17A G68A,0.76
15,G17C C18G,0
16,G17C C18U,0.0923
17,G17A G54U,0.554
18,A16U U72G,0.465
19,G17C A42C,0.0723
20,G17C A42G,0
21,G17C A42U,0.158
22,A16G G74U,0.494
23,G17A C36U,0.272
